Assay results reported in US20140087995A1 (published 2014).
Numbered stars: 1 amine (or outer) side, 2 acyl side, 3 side chain; on linkers, the order of the positions; unused ones are H or OH. Bridge positions count the residues as written; N and C are the ends. Side chains are listed from the residue outwards. Ends that are not written are not given here. * marks the point of attachment. C20 diacid = O=C(O)CCCCCCCCCCCCCCCCCCC(=O)*; γGlu = O=C(O)[C@H](CCC(=O)[*:2])N[*:1]; AEEA = NCCOCCOCC(=O)O

Tests used:
[1] = biological target: T1, human amylin receptor (amylin 3(a) receptor: human calcitonin receptor plus RAMP-3) (human, UniProt P30988 25-474; O60896 24-148, limits assumed); experiment: cell-based or functional assay
T1 sequence (looked up) 1: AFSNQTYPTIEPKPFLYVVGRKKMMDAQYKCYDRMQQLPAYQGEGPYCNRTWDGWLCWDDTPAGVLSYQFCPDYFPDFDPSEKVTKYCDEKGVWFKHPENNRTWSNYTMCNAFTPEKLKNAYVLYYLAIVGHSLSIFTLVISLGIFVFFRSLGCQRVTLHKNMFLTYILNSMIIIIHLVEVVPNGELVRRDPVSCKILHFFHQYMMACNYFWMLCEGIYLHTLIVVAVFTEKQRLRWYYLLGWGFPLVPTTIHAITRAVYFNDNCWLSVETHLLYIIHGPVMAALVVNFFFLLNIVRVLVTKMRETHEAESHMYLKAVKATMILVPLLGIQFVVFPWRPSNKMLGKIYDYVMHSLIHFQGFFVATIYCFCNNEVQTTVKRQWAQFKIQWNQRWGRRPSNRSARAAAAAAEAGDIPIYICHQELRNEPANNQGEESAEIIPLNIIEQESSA
T1 sequence (looked up) 2: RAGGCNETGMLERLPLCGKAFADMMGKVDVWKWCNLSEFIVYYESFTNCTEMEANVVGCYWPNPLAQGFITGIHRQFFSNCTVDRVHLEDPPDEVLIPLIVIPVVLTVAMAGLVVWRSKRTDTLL

[2] = biological target: T2, human calcitonin receptor (human, UniProt P30988 25-474); experiment: cell-based or functional assay
T2 sequence (looked up): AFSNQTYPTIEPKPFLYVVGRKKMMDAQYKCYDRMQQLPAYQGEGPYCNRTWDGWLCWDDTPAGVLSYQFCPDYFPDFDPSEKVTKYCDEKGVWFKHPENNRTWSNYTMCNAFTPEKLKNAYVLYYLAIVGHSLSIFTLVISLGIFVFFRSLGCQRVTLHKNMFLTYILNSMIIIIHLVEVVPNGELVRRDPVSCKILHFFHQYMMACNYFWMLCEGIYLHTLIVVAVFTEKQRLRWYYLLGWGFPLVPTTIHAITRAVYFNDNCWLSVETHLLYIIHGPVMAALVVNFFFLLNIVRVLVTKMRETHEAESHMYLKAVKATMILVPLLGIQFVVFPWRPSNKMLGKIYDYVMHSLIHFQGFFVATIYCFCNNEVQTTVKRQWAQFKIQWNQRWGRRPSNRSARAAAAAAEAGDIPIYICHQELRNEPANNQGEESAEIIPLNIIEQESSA

Binder	Ratio hCT/hAmylin funct. [1] [ratio]	hAmylin-R funct. EC50 [1] [pM]	hCTR funct. EC50 [2] [pM]
{C20 diacid-γGlu}-KCNTATCATQRLAEFLRHSSPNFGAIPSSTPVGSNTY-NH2 (disulfide 2-7; SMILES CC[C@H](C)[C@H](NC(=O)[C@H](C)NC(=O)CNC(=O)[C@H](Cc1ccccc1)NC(=O)[C@H](CC(N)=O)NC(=O)[C@@H]1CCCN1C(=O)[C@H](CO)NC(=O)[C@H](CO)NC(=O)[C@H](Cc1c[nH]cn1)NC(=O)[C@H](CCCNC(=N)N)NC(=O)[C@H](CC(C)C)NC(=O)[C@H](Cc1ccccc1)NC(=O)[C@H](CCC(=O)O)NC(=O)[C@H](C)NC(=O)[C@H](CC(C)C)NC(=O)[C@H](CCCNC(=N)N)NC(=O)[C@H](CCC(N)=O)NC(=O)[C@@H](NC(=O)[C@H](C)NC(=O)[C@@H]1CSSC[C@H](NC(=O)[C@H](CCCCN)NC(=O)CC[C@H](NC(=O)CCCCCCCCCCCCCCCCCCC(=O)O)C(=O)O)C(=O)N[C@@H](CC(N)=O)C(=O)N[C@@H]([C@@H](C)O)C(=O)N[C@@H](C)C(=O)N[C@@H]([C@@H](C)O)C(=O)N1)[C@@H](C)O)C(=O)N1CCC[C@H]1C(=O)N[C@@H](CO)C(=O)N[C@@H](CO)C(=O)N[C@H](C(=O)N1CCC[C@H]1C(=O)N[C@H](C(=O)NCC(=O)N[C@@H](CO)C(=O)N[C@@H](CC(N)=O)C(=O)N[C@H](C(=O)N[C@@H](Cc1ccc(O)cc1)C(N)=O)[C@@H](C)O)C(C)C)[C@@H](C)O, Synthetic acylated analogue of human amylin; also called compound 31)	6.4	112	717
KCNTATCATQRLAEFLRHSSPNFGAIPSSTNVGSNTY (C20 diacid-gGlu on the alpha amino group of the N-terminal residue; disulfide bridge Cys2-Cys7; C-terminal amide, Synthetic acylated analogue of human amylin; also called compound 9) [N^α1-[(4S)-4-carboxy-4-(19-carboxynonadecanoylamino)butanoyl]-[Glu14,Arg17,Pro21,Pro27]-h-amylin]	7.4	175	1290
K([AEEA-γGlu-C20 diacid])CNTATCATQRLANFLRHSSPNFGAIPPSTPVGSNTY-NH2 (disulfide 2-7, Synthetic acylated analogue of human amylin; also called compound 53)	9.8	64	625
K([AEEA-γGlu-C20 diacid])CNTATCATQRLANFLRHSSPNFGAIPSSTNVGSETY-NH2 (disulfide 2-7; N-terminus assumed; SMILES CC[C@H](C)[C@H](NC(=O)[C@H](C)NC(=O)CNC(=O)[C@H](Cc1ccccc1)NC(=O)[C@H](CC(N)=O)NC(=O)[C@@H]1CCCN1C(=O)[C@H](CO)NC(=O)[C@H](CO)NC(=O)[C@H](Cc1c[nH]cn1)NC(=O)[C@H](CCCNC(=N)N)NC(=O)[C@H](CC(C)C)NC(=O)[C@H](Cc1ccccc1)NC(=O)[C@H](CC(N)=O)NC(=O)[C@H](C)NC(=O)[C@H](CC(C)C)NC(=O)[C@H](CCCNC(=N)N)NC(=O)[C@H](CCC(N)=O)NC(=O)[C@@H](NC(=O)[C@H](C)NC(=O)[C@@H]1CSSC[C@H](NC(=O)[C@@H](N)CCCCNC(=O)COCCOCCNC(=O)CC[C@H](NC(=O)CCCCCCCCCCCCCCCCCCC(=O)O)C(=O)O)C(=O)N[C@@H](CC(N)=O)C(=O)N[C@@H]([C@@H](C)O)C(=O)N[C@@H](C)C(=O)N[C@@H]([C@@H](C)O)C(=O)N1)[C@@H](C)O)C(=O)N1CCC[C@H]1C(=O)N[C@@H](CO)C(=O)N[C@@H](CO)C(=O)N[C@H](C(=O)N[C@@H](CC(N)=O)C(=O)N[C@H](C(=O)NCC(=O)N[C@@H](CO)C(=O)N[C@@H](CCC(=O)O)C(=O)N[C@H](C(=O)N[C@@H](Cc1ccc(O)cc1)C(N)=O)[C@@H](C)O)C(C)C)[C@@H](C)O, Synthetic acylated analogue of human amylin; also called compound 26)	29.9	212	6340
{C20 diacid-γGlu}-KCNTATCATQRLAHFLRHSSPNFGAIPSSTNVGSETY-NH2 (disulfide 2-7; SMILES CC[C@H](C)[C@H](NC(=O)[C@H](C)NC(=O)CNC(=O)[C@H](Cc1ccccc1)NC(=O)[C@H](CC(N)=O)NC(=O)[C@@H]1CCCN1C(=O)[C@H](CO)NC(=O)[C@H](CO)NC(=O)[C@H](Cc1c[nH]cn1)NC(=O)[C@H](CCCNC(=N)N)NC(=O)[C@H](CC(C)C)NC(=O)[C@H](Cc1ccccc1)NC(=O)[C@H](Cc1c[nH]cn1)NC(=O)[C@H](C)NC(=O)[C@H](CC(C)C)NC(=O)[C@H](CCCNC(=N)N)NC(=O)[C@H](CCC(N)=O)NC(=O)[C@@H](NC(=O)[C@H](C)NC(=O)[C@@H]1CSSC[C@H](NC(=O)[C@H](CCCCN)NC(=O)CC[C@H](NC(=O)CCCCCCCCCCCCCCCCCCC(=O)O)C(=O)O)C(=O)N[C@@H](CC(N)=O)C(=O)N[C@@H]([C@@H](C)O)C(=O)N[C@@H](C)C(=O)N[C@@H]([C@@H](C)O)C(=O)N1)[C@@H](C)O)C(=O)N1CCC[C@H]1C(=O)N[C@@H](CO)C(=O)N[C@@H](CO)C(=O)N[C@H](C(=O)N[C@@H](CC(N)=O)C(=O)N[C@H](C(=O)NCC(=O)N[C@@H](CO)C(=O)N[C@@H](CCC(=O)O)C(=O)N[C@H](C(=O)N[C@@H](Cc1ccc(O)cc1)C(N)=O)[C@@H](C)O)C(C)C)[C@@H](C)O, Synthetic acylated analogue of human amylin; also called compound 30)	12.6	134	1680
K([AEEA-AEEA-γGlu-C20 diacid])CNTATCATQRLANFLRHSSPNFGAIPSSTNVGSETY-NH2 (disulfide 2-7; N-terminus assumed; SMILES CC[C@H](C)[C@H](NC(=O)[C@H](C)NC(=O)CNC(=O)[C@H](Cc1ccccc1)NC(=O)[C@H](CC(N)=O)NC(=O)[C@@H]1CCCN1C(=O)[C@H](CO)NC(=O)[C@H](CO)NC(=O)[C@H](Cc1c[nH]cn1)NC(=O)[C@H](CCCNC(=N)N)NC(=O)[C@H](CC(C)C)NC(=O)[C@H](Cc1ccccc1)NC(=O)[C@H](CC(N)=O)NC(=O)[C@H](C)NC(=O)[C@H](CC(C)C)NC(=O)[C@H](CCCNC(=N)N)NC(=O)[C@H](CCC(N)=O)NC(=O)[C@@H](NC(=O)[C@H](C)NC(=O)[C@@H]1CSSC[C@H](NC(=O)[C@@H](N)CCCCNC(=O)COCCOCCNC(=O)COCCOCCNC(=O)CC[C@H](NC(=O)CCCCCCCCCCCCCCCCCCC(=O)O)C(=O)O)C(=O)N[C@@H](CC(N)=O)C(=O)N[C@@H]([C@@H](C)O)C(=O)N[C@@H](C)C(=O)N[C@@H]([C@@H](C)O)C(=O)N1)[C@@H](C)O)C(=O)N1CCC[C@H]1C(=O)N[C@@H](CO)C(=O)N[C@@H](CO)C(=O)N[C@H](C(=O)N[C@@H](CC(N)=O)C(=O)N[C@H](C(=O)NCC(=O)N[C@@H](CO)C(=O)N[C@@H](CCC(=O)O)C(=O)N[C@H](C(=O)N[C@@H](Cc1ccc(O)cc1)C(N)=O)[C@@H](C)O)C(C)C)[C@@H](C)O, Synthetic acylated analogue of human amylin; also called compound 25)	46.2	217	10000
